Data: the supplement of paper PMC12042874
± gives the uncertainty stated by the source.

Assay: amyloid nucleation score (Sup35N fusion, yeast selection) (log enrichment); library NNK2; higher = more nucleation; inactive = no reads after selection
Outline: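 Peptides of 20 random codons fused to Sup35N were expressed in psi-negative yeast, induced 24 hours with 100 μM copper sulfate, then grown 7 days at 30°C on medium lacking adenine and uracil. Input and output plasmid inserts were Illumina-sequenced. Nucleation score is the DiMSum log enrichment of output over input reads, centred on the mode score of non-aggregating sequences, excluding sequences with under 100 input reads. Random libraries had three technical output replicates.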

Substance | amyloid nucleation score
RNWPVIVVWAKTGCQCSFLM | -0.544 ± 0.36
RPLFEFWPKPPL | 2.17 ± 0.14
RPNSSIVLLYPFKMRPFES | inactive
RPTAIPAHLIVFSEFCEAEW | 0.739 ± 0.45
RPVCKFL | 0.275 ± 0.5
RQARRRRTSRQHEKGV | 1.49 ± 0.16
RQLAQQYAHAFGYIFHSLYL | 1.19 ± 0.4
RQMDHYQRGFLIIYCQLTDK | inactive
RRAENLMEFGLIRAFY | -0.007 ± 0.63
RRDNPWLSHVIW | 1.06 ± 0.33
RREDKLICRFIDVNLEVDW | 2.72 ± 0.066
RRFCSCQLSKPLIFPMVLYW | -0.454 ± 0.53
RRGNLGDAMNNMARFCSYSF | inactive
RRKVCYTSQVRRLVNQRNVS | -1.11 ± 0.34
RRLFSVKIAYLCDT | 2.63 ± 0.2
RRLLLLGSFWGSVHQHVTSS | -0.207 ± 0.4
RRLSGSFLRDYVNPWIQRSS | -0.277 ± 0.42
RRMMRP | 2.2 ± 0.4
RRMNHLPFCCKRYRTSRPKF | 0.222 ± 0.64
RRMVMVSANVSLIEQHYCRN | 5.552 ± 0.042
RRNNTGKHFWDWETREGFSM | -0.931 ± 1.1
RRPFVRRLFVLKNMFNSLGR | -0.707 ± 1.1
RRPKHYMAVMSESVGLQCRL | 0.173 ± 0.37
RRRGVLLTRPLKRQLVK | inactive

Substance | amyloid nucleation score
RRTVQWVWAVYIV | -0.803 ± 0.45
RRVGRYESWRNFSNEI | -0.835 ± 0.27
RRVTRKVVGPRNYAYEKYFW | 3.28 ± 0.06
RRWEL | 0.687 ± 0.34
RSCATFIFVMS | 4.98 ± 0.073
RSEDGRGGSKGQIIRVVMNW | 4.76 ± 0.062
RSENSILHVLHRFVA | -0.559 ± 0.64
RSFGLSDPIKTTGKTSV | inactive
RSFLLVLAELCFT | 4.22 ± 0.12
RSGLLDMS | -0.129 ± 1.1
RSGNRGPVARYVGYERCMGK | 0.629 ± 0.56
RSLFKLTENCCIIVSWASDN | 8.848 ± 0.057
RSLIFLNWGYSV | 3.59 ± 0.056
RSRSGVLVERFMAVSWDAWH | 5.691 ± 0.051
RSSGSSWRLNYLDEDTVVAR | 1 ± 0.4
RSSLIIALCWFR | 5.54 ± 0.059
RSTPLKYNLRFIPLSHGRRV | -0.431 ± 0.48
RSVALARLMFVPLTLDSV | 0.264 ± 0.2
RSVSGMVWE | 0.21 ± 0.74
RSVSNDKYVFWFLRLVDVKA | 0.225 ± 0.26
RSVSTTHRCRTTLKTSNYCL | 0.778 ± 0.67
RSWVLLSYAPFHCS | 0.482 ± 0.19
RSYFSDFH | inactive
RSYQMSGPIALRKWEEEWAE | 0.611 ± 0.46

Substance | amyloid nucleation score
RTAINESCQDEMG | 5.44 ± 0.073
RTALKYPVSYSRFGSFADES | -0.73 ± 0.41
RTEGRGCRAAWSK | 0.101 ± 0.76
RTLPFWWLNLFWFLNNMDTF | -1.8 ± 1.1
RTMWSIFHYSTVVSRVSTMA | 1.23 ± 0.45
RTSCVYSHWQHNIERLLGRW | inactive
RTWCDGGCPV | 0.653 ± 0.81
RTYVGRPENCKSWSYPMLMQ | 4.805 ± 0.039
RVIHKFLYK | 6.288 ± 0.06
RVISFIYWSVTGDSDCLLWC | 4.24 ± 0.067
RVKRRMSFVVAVAQVMGLVG | 0.475 ± 0.23
RVLLHSLRKYLIHDCDVYRA | -0.474 ± 0.55
RVLTGWVVA | 0.215 ± 0.76
RVMMSRISYSLSCVSADKVR | 0.288 ± 0.24
RVMSVCGSYVNRGEADVVSG | 0.364 ± 0.18
RVNCYYSFRS | 6.026 ± 0.038
RVRGWLSMSWGCGMGLPASS | 7.03 ± 0.074
RVRIGQAGVWAPRPKELTLW | 0.679 ± 0.81
RVSHREFYLRGTLVETLLDD | inactive
RVSLLMYGWRVGRTNVCGLC | 1.41 ± 0.53
RVTFNFRGMYKLIIMGGVPP | 6.49 ± 0.085
RVVFKHENLDMWCWMS | 1.47 ± 0.11
